The results in this text go back to publication PMC3593662.

The test system of series [1] is O=[N+]([O-])c1ccccc1O[C@@H]1O[C@H](CO)[C@H](O)[C@H](O)[C@H]1O. The experiment in a line: o-nitrophenol release, A420, Michaelis-Menten non-linear fit. The class given is biochemical, Bifidobacterium longum subsp. infantis. As to conditions: optimum pH 5.0 and optimum temperature 45-55 °C, 0.1-4 mM ONPG.
Substrate in series [2]: O=[N+]([O-])c1ccccc1O[C@@H]1O[C@H](CO)[C@H](O)[C@H](O)[C@H]1O
The description is as above. The class given is biochemical, Bifidobacterium longum. As to conditions: optimum pH 5.0-6.0 and optimum temperature 45-55 °C, 0.1-4 mM ONPG.

By Km is commonly meant the concentration of substrate that gives half-maximal velocity. As a reminder, the kcat is the number of substrate molecules converted per active site and unit of time at saturation. A word on the kcat/Km: it is the turnover number divided by the Michaelis constant.

In the case of “Blon_0268 (Bifidobacterium longum subsp. infantis ATCC 15697 = JCM 1222 = DSM 20088)”, in series [1], the Km was 600 µM, the kcat is 5.11 s⁻¹ and the kcat/Km was 8500 M⁻¹ s⁻¹.

B1: Blon_2123 (Bifidobacterium longum subsp. infantis ATCC 15697 = JCM 1222 = DSM 20088) (protein)
chain: MRARRDFAWPKLLTADGRGIAFGGDYNPDQWPEDVWDDDIRLMGQAGVNTVALAIFSWDRLQPTEDHWNFDWLDRIIDKLGQAGIAVDLASATATAPLWLYENHPEVLPRDKYGHPVNAGSRQSWSPTSPVFKEYALTLCRKLAERYGTNPYVTAWHMGNEYGWNNRDDYSDNALEAFRAWCRRKYGTIDALNQAWGTTFWGQEMTGFDEVLIPRFMGADSMVNPGQKLDFERFGNDMLLDFYKAERDAIAEICPDKPFTTNFMISTDQCCMDYAAWAEEVNFVSNDHYFHEGESHLDELACSDALVDSLALGKPWYVMEHSTSAVQWKPLNTRKRNGETVRDSLAHVAMGADAINFFQWRASAFGAEAFHSAMVPHAGENTKLFRQVCELGATLQALADAGVQGSELAHADTAILFSAESEWATRSETLPSMKLNHWHDVRDWYRAFLNAGARADIVPLAYDWSSYKTIVLPTVLMLSDADTRRLAGFVQDGGRVVVGYATGLLDERFHTWLGGYPGAGDGLLRSMLGVRGEEFNILGTETEDEPSEIRLASTGDSPTMDGAVTRLWQNDVTVAGPHVQVLAAYAGEEANEWELDGTAAITRNTYGEGEAYFLGCDLGVSDLTRFVGGWLAARPQDGRQPEANLRSPASGVTSDVLHTVRQSDDAIFDFYLTRGKSDVELRDIAGEPIVLFRAERGSDGGAYTVHRNGVLVMKRPNPSV
For the molecule B1, in series [2], the Michaelis-Menten constant (Km) amounted to 1060 µM, the kcat came out at 270 s⁻¹ and the kcat/Km was 250000 M⁻¹ s⁻¹.
